Assay results from article PMC5145181, “Structural Mapping and Functional Characterization of Zebrafish Class B G-Protein Coupled Receptor (GPCR) with Dual Ligand Selectivity towards GLP-1 and Glucagon” (PLoS ONE, 2016).

Assays:
[1] = biological target: zebrafish class B G-protein coupled receptor (zfGPCR), dual zfGLP-1R/GCGR (zebrafish (Danio rerio)); assay: radioligand binding; competitive displacement of 125I-hGLP-1(7-36)amide (100,000 cpm/well) from recombinant zfGPCR on transiently transfected COS-7 cells in 24-well plates; cold peptide pM to μM in triplicate; 16-18 h at 4°C; IC50 by four-parameter logistic fit (Prism 4)
[2] = biological target: zebrafish class B G-protein coupled receptor (zfGPCR), dual zfGLP-1R/GCGR (zebrafish (Danio rerio)); assay: radioligand binding; competitive displacement of 125I-exendin(9-39) (100,000 cpm/well) from recombinant zfGPCR on transiently transfected COS-7 cells in 24-well plates; cold peptide pM to μM in triplicate; 16-18 h at 4°C; IC50 by four-parameter logistic fit (Prism 4)
[3] = biological target: zebrafish class B G-protein coupled receptor (zfGPCR), dual zfGLP-1R/GCGR (zebrafish (Danio rerio)); assay: radioligand binding

Sequence of human GLP-1(7-36)amide (hGLP-1) (P01275 98-127): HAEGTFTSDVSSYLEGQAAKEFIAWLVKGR
Sequence of human glucagon (P01275 53-81): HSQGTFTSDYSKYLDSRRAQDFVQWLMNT

| IC50 [1] | IC50 [3] | Substance | IC50 [2] |
| --- | --- | --- | --- |
| 3.6 nM | 178 nM | human GLP-1(7-36)amide (hGLP-1) (from UniProt P01275 98-127) (peptide) |  |
|  | 67 nM | human glucagon (from UniProt P01275 53-81) (peptide) |  |
| 2.1 nM | 290 nM | zebrafish GLP-1 (zfGLP-1) (peptide) |  |
| 2.4 nM | 106 nM | zebrafish glucagon (peptide) |  |

| Substance | IC50 [1] | IC50 [3] | IC50 [2] |
| --- | --- | --- | --- |
| exendin(9-39) (peptide) | 5.8 nM |  | 4.21 nM |
| exendin-4 (from UniProt P26349 48-87) (peptide) | 0.48 nM |  | 1 nM |
